Test results taken from patent publication US20220213456.

Experiments:
Test in all cases: cleavage_in_vitro
[1] = tested on: T1, OMNI-46 (Carnobacterium funditum); details: TXTL; PAM YAAAR
T1 sequence: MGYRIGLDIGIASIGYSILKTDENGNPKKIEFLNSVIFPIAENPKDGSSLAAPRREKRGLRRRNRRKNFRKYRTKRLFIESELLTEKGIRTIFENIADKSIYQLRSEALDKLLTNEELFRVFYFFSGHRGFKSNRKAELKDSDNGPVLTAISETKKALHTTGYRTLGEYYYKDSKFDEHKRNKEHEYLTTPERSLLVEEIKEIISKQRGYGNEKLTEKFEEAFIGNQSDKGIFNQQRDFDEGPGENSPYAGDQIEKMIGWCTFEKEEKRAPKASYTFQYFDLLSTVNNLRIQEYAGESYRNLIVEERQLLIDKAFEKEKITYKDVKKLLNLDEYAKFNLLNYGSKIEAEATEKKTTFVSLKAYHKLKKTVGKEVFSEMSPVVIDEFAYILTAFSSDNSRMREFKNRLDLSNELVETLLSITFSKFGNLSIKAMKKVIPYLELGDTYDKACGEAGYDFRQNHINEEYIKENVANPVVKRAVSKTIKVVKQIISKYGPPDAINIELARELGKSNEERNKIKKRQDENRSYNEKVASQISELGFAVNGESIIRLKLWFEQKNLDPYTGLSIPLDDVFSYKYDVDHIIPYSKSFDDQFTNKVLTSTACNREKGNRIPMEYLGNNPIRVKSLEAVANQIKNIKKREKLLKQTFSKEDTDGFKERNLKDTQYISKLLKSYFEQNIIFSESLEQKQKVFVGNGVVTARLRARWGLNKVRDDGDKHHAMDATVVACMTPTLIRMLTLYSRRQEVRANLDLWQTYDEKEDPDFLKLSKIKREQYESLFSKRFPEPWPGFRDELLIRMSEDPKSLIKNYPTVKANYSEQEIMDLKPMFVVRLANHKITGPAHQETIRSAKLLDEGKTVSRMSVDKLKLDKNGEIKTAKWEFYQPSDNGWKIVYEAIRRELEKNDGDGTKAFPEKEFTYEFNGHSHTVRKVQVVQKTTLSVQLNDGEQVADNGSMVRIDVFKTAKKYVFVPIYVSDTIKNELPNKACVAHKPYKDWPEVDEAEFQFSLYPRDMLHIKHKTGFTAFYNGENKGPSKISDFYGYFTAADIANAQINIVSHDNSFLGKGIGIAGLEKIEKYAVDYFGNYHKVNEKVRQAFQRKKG

[2] = tested on: T2, OMNI-42 (Caviibacter abscessus); details: TXTL; PAM NNGMM (specific NTGCC); FIG. 3F states V2, table states V1
T2 sequence: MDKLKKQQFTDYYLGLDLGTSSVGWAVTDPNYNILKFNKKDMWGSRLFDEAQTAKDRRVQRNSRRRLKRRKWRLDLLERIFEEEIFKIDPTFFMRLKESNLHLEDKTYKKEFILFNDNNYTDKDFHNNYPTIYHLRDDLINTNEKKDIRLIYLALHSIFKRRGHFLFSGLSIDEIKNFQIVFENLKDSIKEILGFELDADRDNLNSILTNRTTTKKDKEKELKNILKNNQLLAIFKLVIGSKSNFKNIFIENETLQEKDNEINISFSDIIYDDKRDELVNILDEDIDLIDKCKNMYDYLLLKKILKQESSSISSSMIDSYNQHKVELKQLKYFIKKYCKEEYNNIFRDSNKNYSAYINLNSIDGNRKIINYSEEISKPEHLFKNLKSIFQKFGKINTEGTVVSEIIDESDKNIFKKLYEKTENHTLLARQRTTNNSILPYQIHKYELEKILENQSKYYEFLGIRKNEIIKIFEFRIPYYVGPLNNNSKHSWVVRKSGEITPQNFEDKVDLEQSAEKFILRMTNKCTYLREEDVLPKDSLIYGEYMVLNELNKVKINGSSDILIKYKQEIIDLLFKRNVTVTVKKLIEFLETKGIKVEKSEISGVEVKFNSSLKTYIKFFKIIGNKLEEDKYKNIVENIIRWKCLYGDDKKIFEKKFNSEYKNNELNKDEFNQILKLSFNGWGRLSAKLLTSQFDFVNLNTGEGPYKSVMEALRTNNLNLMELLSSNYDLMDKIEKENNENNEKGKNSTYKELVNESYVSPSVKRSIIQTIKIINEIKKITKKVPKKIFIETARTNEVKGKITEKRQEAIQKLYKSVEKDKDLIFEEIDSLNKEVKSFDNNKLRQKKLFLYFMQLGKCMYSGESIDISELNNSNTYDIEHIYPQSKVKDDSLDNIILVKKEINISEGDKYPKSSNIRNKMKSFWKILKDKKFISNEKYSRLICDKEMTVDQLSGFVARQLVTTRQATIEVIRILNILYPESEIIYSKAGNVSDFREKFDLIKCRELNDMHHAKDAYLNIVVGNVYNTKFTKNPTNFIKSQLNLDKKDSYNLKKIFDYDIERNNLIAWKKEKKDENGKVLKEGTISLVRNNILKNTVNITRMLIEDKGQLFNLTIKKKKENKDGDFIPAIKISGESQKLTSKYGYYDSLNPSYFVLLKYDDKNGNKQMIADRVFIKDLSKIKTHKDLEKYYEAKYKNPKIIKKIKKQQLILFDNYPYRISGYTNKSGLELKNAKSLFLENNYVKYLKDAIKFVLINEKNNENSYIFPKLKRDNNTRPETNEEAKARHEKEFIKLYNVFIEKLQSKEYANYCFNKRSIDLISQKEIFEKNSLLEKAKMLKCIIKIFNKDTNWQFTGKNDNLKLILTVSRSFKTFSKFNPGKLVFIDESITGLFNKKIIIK

[3] = tested on: T3, OMNI-43 (Arcobacter sp. SM1702); details: TXTL; PAM YAAAR; V1, V2 tested
T3 sequence: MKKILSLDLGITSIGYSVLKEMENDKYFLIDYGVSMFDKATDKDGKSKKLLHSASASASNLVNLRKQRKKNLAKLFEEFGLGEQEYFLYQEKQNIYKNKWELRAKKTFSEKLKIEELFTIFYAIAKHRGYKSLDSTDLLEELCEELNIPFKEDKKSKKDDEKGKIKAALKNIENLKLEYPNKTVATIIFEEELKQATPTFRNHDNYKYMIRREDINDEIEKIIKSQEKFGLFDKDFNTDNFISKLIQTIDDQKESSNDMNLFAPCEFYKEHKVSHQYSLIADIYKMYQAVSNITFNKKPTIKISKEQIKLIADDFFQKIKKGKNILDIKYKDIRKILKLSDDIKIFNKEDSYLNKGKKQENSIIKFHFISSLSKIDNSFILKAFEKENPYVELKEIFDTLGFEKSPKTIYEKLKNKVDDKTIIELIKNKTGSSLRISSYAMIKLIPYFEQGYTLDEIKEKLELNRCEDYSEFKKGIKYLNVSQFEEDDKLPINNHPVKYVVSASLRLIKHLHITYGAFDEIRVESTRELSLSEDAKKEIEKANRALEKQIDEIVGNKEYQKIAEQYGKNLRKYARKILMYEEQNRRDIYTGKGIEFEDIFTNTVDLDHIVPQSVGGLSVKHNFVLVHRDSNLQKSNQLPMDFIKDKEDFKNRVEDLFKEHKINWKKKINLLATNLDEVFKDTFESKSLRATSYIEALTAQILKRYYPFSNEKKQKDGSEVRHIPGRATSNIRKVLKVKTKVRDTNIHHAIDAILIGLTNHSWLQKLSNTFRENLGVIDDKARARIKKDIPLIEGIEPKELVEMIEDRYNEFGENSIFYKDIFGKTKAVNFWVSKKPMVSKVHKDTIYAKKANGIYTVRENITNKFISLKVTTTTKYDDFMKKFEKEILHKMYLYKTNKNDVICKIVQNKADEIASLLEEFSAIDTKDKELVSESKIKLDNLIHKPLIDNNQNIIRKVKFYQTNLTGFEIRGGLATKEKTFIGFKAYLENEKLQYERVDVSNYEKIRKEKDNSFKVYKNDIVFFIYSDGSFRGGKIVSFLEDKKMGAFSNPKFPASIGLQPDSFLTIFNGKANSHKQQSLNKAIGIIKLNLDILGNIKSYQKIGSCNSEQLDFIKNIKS

[4] = tested on: T4, OMNI-44 (Arcobacter mytili); details: TXTL; PAM NRHAA; FIG. 3H states V2, table states V3
T4 sequence: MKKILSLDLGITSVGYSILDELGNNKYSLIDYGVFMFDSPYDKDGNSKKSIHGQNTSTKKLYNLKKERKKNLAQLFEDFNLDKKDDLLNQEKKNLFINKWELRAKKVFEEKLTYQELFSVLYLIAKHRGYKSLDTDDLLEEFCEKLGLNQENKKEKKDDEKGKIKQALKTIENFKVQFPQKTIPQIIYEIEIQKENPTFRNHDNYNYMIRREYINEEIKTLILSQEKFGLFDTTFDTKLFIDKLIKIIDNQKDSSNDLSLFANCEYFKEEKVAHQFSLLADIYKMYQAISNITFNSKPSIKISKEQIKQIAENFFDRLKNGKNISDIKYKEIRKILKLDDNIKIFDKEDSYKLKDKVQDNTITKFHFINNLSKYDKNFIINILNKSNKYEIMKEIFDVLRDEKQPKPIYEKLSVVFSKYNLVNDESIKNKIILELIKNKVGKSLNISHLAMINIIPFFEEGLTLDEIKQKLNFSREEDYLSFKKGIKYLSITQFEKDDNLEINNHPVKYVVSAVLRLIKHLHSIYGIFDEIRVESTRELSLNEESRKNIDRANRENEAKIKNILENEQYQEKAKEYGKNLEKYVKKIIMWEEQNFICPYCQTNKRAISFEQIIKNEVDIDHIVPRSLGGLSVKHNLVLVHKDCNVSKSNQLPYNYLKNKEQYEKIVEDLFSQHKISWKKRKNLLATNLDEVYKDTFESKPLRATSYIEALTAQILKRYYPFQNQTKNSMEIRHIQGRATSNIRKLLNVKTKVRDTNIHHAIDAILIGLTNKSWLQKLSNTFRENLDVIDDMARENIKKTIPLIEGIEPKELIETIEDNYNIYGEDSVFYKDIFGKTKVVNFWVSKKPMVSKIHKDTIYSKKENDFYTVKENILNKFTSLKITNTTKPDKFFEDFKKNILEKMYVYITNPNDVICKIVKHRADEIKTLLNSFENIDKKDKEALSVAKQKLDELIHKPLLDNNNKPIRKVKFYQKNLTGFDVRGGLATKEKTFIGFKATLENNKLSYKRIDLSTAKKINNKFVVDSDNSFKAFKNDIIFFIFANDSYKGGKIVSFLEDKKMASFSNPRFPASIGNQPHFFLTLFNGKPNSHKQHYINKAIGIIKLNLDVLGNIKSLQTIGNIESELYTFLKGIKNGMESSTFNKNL

“GGAAGAGCAGAGCCUUGGUCUCGCUAUACGUUCCUUACAAAAUCGGGAAACCGACUUUGCAAGGAACGUAUAGUAAAGGGAGUGCUCUGCACUCUCCUGUAAAGCACUAACCCCAUUUUCUUCGGAGAAUGGGGUUAUCUUUUU / GGAAGAGCAGAGCCTTGGTCTCNNNNNNNN / NNNNNNNNGAGACCAAGGCTCTGCTCTTCC [OMNI-46 T2 sgRNA V2 ; pbPOS T2 protospacer 8N PAM library]” was tested, and the activity (1-depletion score) [1] was 0.95.

Work on “GGAAGAGCAGAGCCUUGGUCUCGUUUAAGAGUUAUGUAAGAAAUUACAUAACGAGUUUAAAUAAAAAUUUAUUGAAAUCGUCAAAUUAUUUUUGACUAGCCUCUUUUUGAAGAGGUUUUUUU / GGAAGAGCAGAGCCTTGGTCTCNNNNNNNN / NNNNNNNNGAGACCAAGGCTCTGCTCTTCC [OMNI-42 T2 sgRNA V2 ; pbPOS T2 protospacer 8N PAM library]” yielded an activity (1-depletion score) [2] of 0.91.

Sequence “GGAAGAGCAGAGCCUUGGUCUCGUUUUAAUACCCCUACAAACUGGAAACAGUUUAAUAGGGGUAUUAAACUAAGGUUGCUAUUUUAGCAACUGACUUUAGGCAGUGGUUUCGACCACUUGCCCUUUUUU / GGAAGAGCAGAGCCTTGGTCTCNNNNNNNN / NNNNNNNNGAGACCAAGGCTCTGCTCTTCC [OMNI-43 T2 sgRNA V1 ; pbPOS T2 protospacer 8N PAM library]” has an activity (1-depletion score) [3] of 0.91.

Work on “GGAAGAGCAGAGCCUUGGUCUCGUUUUAAUACCCCUAUAAACUACUAGAAAUAGUAGUUUAAUAGGGGUAUUAAACUAAGACUACUUUAAUAGUAGUUGAUUUUAGGAGAUAGUUUUUCUAUCUCCCUUUUU / GGAAGAGCAGAGCCTTGGTCTCNNNNNNNN / NNNNNNNNGAGACCAAGGCTCTGCTCTTCC [OMNI-44 T2 sgRNA V2 ; pbPOS T2 protospacer 8N PAM library]” yielded an activity (1-depletion score) [4] of 0.96.
